Columns and labels:
[1] = Binding of dimeric MET constructs to HiTrap Heparin HP column, NaCl gradient elution; conditions: 50 mM phosphate, 150 mM NaCl, pH 7.4, linear NaCl gradient
Description: (§1) Immulon B 96 well plates were coated with recombinant, single chain (R494E) or two chain HGF/SF in 50 mM phosphate buffer, pH 6.0. Wells were blocked, incubated with dimeric MET constructs at the concentrations shown in FIGS. 2a and b and bound MET was detected with HRP-conjugated rabbit anti-human IgG (Dako P0214). For heparin binding, dimeric MET constructs were loaded on a HiTrap Heparin HP column (Amersham Biosciences 17-0406-01) in 50 mM phosphate, 150 mM NaCl, pH 7.4 and eluted with a linear gradient of NaCl as shown in FIGS. 2c and d.

[2] = target: T1, recombinant two chain HGF/SF (human, UniProt P14210 32-494; P14210 495-728); test: solid phase assay, HGF/SF coated, bound MET detected with HRP anti-human IgG
T1 construct: also called mature (two-chain) HGF/SF
Description: as §1

[3] = target: T2, recombinant single chain HGF/SF (R494E) (human, UniProt P14210 32-728); test: as above
T2 construct: also called single chain (R494E) HGF/SF
Description: as §1

[4] = system: single chain (R494E) or two chain HGF/SF; test: Solid phase binding of dimeric MET deletions to HGF/SF; conditions: plates coated with single chain (R494E) or two chain HGF/SF; bound MET detected with HRP anti-human IgG
Description: as §1

Chain of single chain (R494E) or two chain HGF/SF (P14210 32-493 limits assumed, stated change not applied): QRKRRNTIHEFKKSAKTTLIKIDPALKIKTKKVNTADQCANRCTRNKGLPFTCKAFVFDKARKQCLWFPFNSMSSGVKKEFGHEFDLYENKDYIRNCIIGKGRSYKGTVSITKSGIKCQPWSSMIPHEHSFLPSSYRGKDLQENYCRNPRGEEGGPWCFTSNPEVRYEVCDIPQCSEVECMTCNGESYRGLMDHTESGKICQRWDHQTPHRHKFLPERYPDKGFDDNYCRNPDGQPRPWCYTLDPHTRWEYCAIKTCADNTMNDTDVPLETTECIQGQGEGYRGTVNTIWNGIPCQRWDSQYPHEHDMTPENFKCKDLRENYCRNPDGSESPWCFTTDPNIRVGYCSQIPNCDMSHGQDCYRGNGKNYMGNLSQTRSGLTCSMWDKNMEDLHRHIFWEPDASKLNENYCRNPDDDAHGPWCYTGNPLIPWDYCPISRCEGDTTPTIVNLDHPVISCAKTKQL
T2 sequence (P14210 32-728 R494E limits assumed): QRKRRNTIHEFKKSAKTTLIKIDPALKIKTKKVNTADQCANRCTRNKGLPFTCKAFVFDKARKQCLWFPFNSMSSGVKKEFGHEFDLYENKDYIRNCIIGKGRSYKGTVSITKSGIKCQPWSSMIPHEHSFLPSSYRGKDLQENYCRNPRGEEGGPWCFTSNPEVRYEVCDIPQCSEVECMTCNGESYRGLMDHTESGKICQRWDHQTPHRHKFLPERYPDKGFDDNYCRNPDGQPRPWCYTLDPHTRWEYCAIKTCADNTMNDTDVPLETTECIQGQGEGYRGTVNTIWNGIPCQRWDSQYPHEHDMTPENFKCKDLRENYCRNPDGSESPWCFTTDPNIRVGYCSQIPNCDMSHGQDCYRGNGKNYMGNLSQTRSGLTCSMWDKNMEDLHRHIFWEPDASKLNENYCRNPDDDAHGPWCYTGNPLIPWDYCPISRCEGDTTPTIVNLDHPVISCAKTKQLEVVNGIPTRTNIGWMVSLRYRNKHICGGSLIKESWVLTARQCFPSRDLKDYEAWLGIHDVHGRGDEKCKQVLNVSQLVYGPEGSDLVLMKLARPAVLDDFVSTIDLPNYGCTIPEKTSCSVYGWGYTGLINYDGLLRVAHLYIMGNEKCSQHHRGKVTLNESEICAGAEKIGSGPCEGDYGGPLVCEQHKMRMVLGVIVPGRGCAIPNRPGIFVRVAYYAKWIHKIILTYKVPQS
T1 sequence (P14210 32-494 limits assumed, chain 1 of 2): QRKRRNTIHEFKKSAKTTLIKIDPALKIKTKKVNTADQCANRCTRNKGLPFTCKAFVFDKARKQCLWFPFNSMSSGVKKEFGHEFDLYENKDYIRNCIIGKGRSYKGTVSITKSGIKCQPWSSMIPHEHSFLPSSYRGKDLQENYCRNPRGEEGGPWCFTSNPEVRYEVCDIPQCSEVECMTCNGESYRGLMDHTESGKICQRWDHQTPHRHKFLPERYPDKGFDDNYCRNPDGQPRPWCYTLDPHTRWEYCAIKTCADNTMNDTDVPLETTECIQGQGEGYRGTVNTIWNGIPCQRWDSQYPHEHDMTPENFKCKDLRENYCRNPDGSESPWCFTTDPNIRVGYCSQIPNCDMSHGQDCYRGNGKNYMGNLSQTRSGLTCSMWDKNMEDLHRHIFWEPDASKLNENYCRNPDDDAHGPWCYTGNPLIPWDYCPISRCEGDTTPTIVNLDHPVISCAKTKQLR
T1 sequence (P14210 495-728 limits assumed, chain 2 of 2): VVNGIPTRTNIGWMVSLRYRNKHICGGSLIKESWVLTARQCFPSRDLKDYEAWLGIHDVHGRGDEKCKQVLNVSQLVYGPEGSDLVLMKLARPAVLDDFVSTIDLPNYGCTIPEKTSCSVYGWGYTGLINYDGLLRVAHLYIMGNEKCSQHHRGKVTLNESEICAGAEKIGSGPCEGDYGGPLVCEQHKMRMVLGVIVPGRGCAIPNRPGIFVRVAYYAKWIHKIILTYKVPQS

Row | Molecule | Binding to immobilised heparin [1] | Binding to HGF/SF [4] | other results
1 | HGF/SF: hepatocyte growth factor/scatter factor, ligand of MET | strong heparin binding | – | –
2 | MET 567-932GH (Fc fusion, IG leader left out; Dimer through the Fc; also called MET567-928GH; not shown: hinge, CH2 and CH3 domains of the human gamma1 antibody constant region) chain (part 1 of 2): KVFPNSAPLEGGTRLTICGWDFGFRRNNKFDLKKTRVLLGNESCTLTLSESTMNTLKCTVGPAMNKHFNMSIIISNGHGTTQYSTFSYVDPVITSISPKYGPMAGGTLLTLTGNYLNSGNSRHISIGGKTCTLKSVSNSILECYTPAQTISTEFAVKLKIDLANRETSIFSYREDPIVYEIHPTKSFISGGSTITGVGKNLNSVSVPRMVINVHEAGRNFTVACQHRSNSEIICCTTPSLQQLNLQLPLKTKAFFMLDGILSKYFDLIYVHNPVFKPFEKPVMISMGNENVLEIKGNDIDPEAVKGEVLKVGNKSCENIHLHSEAVLCTVPNDLLKLNSELNIEWKQAISSTVLGKVIVQPDQNFT chain (part 2 of 2): HHHHHH | – | – | binding result [2]: no binding; binding result [3]: no binding
3 | MET567-928GH: dimeric C-terminal part of the MET ectodomain fused to human γ1 Fc, hexa-histidine tagged (protein, left off: a dimerising Fc or GST) chain (part 1 of 2): KVFPNSAPLEGGTRLTICGWDFGFRRNNKFDLKKTRVLLGNESCTLTLSESTMNTLKCTVGPAMNKHFNMSIIISNGHGTTQYSTFSYVDPVITSISPKYGPMAGGTLLTLTGNYLNSGNSRHISIGGKTCTLKSVSNSILECYTPAQTISTEFAVKLKIDLANRETSIFSYREDPIVYEIHPTKSFISGGSTITGVGKNLNSVSVPRMVINVHEAGRNFTVACQHRSNSEIICCTTPSLQQLNLQLPLKTKAFFMLDGILSKYFDLIYVHNPVFKPFEKPVMISMGNENVLEIKGNDIDPEAVKGEVLKVGNKSCENIHLHSEAVLCTVPNDLLKLNSELNIEWKQAISSTVLGKVIVQPDQNFT chain (part 2 of 2): HHHHHH | no binding | no binding | Binding to immobilised heparin ([1]; listed as MET 567-928GH): none
4 | 25-519GH: dimeric MET aa 25-519 fused to human γ1 Fc, hexa-histidine tagged (protein, left off: a dimerising Fc or GST) ECKEALAKSEMNVNMKYQLPNFTAETPIQNVILHEHHIFLGATNYIYVLNEEDLQKVAEYKTGPVLEHPDCFPCQDCSSKANLSGGVWKDNINMALVVDTYYDDQLISCGSVNRGTCQRHVFPHNHTADIQSEVHCIFSPQIEEPSQCPDCVVSALGAKVLSSVKDRFINFFVGNTINSSYFPDHPLHSISVRRLKETKDGFMFLTDQSYIDVLPEFRDSYPIKYVHAFESNNFIYFLTVQRETLDAQTFHTRIIRFCSINSGLHSYMEMPLECILTEKRKKR chain (part 1 of 2): STKKEVFNILQAAYVSKPGAQLARQIGASLNDDILFGVFAQSKPDSAEPMDRSAMCAFPIKYVNDFFNKIVNKNNVRCLQHFYGPNHEHCFNRTLLRNSSGCEARRDEYRTEFTTALQRVDLFMGQFSEVLLTSISTFIKGDLTIANLGTSEGRFMQVVVSRSGPSTPHVNFLLDSHPVSPEVIVEHTLNQNGYTLVITGKKITKIPLNGLG chain (part 2 of 2): HHHHHH | indistinguishable from full length MET | readily measurable | Binding to immobilised heparin ([1]; listed as MET 25-519GH): showed binding
5 | 25-567GH: dimeric MET aa 25-567 fused to human γ1 Fc, hexa-histidine tagged (protein, left off: a dimerising Fc or GST) ECKEALAKSEMNVNMKYQLPNFTAETPIQNVILHEHHIFLGATNYIYVLNEEDLQKVAEYKTGPVLEHPDCFPCQDCSSKANLSGGVWKDNINMALVVDTYYDDQLISCGSVNRGTCQRHVFPHNHTADIQSEVHCIFSPQIEEPSQCPDCVVSALGAKVLSSVKDRFINFFVGNTINSSYFPDHPLHSISVRRLKETKDGFMFLTDQSYIDVLPEFRDSYPIKYVHAFESNNFIYFLTVQRETLDAQTFHTRIIRFCSINSGLHSYMEMPLECILTEKRKKR chain (part 1 of 2): STKKEVFNILQAAYVSKPGAQLARQIGASLNDDILFGVFAQSKPDSAEPMDRSAMCAFPIKYVNDFFNKIVNKNNVRCLQHFYGPNHEHCFNRTLLRNSSGCEARRDEYRTEFTTALQRVDLFMGQFSEVLLTSISTFIKGDLTIANLGTSEGRFMQVVVSRSGPSTPHVNFLLDSHPVSPEVIVEHTLNQNGYTLVITGKKITKIPLNGLGCRHFQSCSQCLSAPPFVQCGWCHDKCVRSEECLSGTWTQQICLPAIYK chain (part 2 of 2): HHHHHH | – | readily measurable | –
